This is an account of results in PMC6471494, “Functional Mechanisms Underlying the Antimicrobial Activity of the Oryza sativa Trx-like Protein” (International Journal of Molecular Sciences, 2019).

The series deals with the molecule itself. In words: negative-stain transmission electron microscopy; SEC fractions a, b and c of OsTDX on glow-discharged carbon-coated copper grids, 1% uranyl acetate, FEI Tecnai 20 at 200 kV.

B1: Oryza sativa Tetratricopeptide Domain-containing thioredoxin (OsTDX) protein (natural protein, UniProt Q6ES52 1-317, looked up)
chain: MATAGASSFEDEIMESDIELEGEAVEPDNDPPQKMGDPSVEVSDEKRDQAQLCKNKGVDAFSEGKLDEAIEHLTEAIVLNPTSAIAYATRAVIFVKSKKPNAAIRDADAALKINPDSAKGYKSRGMAKAMLGKWEEAAQDLRMAAKLDYDEEIGAELKKVEPNVLKIEEHRKKYERLRKERDIKKAEMEKQRKHAEEVSAASAALKDGDVIAIHSSSELDTKLKAASSLSRLVVLYFTAAWCGPCRFIGPVCKSLAEKHRNVVFLKVDIDELNSVAYRWNVSSVPSFFFVRNGKEIDKVVGADKNGLERKVAQHGSS
notes: OsTDX, Oryza sativa TPR repeat-containing thioredoxin; full-length cDNA amplified from a rice leaf cDNA library and cloned into pGEX-2T; predicted MW ~35 kDa; also called rice Trx-like protein; recombinant OsTDX; source: E. coli BL21(DE3), purified (glutathione-agarose, GST cleaved by thrombin, FPLC SEC 650 column)
One may read the stoichiometry N as the number of molecules, sites or subunits per partner or assembly. Take B1: the “stoichiometry N” value is 2.
